Results published in patent US20040241754A1, “Modulating neuronal plasticity” (The Salk Institute for Biological Studies, priority 2003, published 2004).

T1: His-GRIP(PDZ4-6) (rat, UniProt P97879 448-792)
T1 construct: range 448-792; not shown: His tag and vector residues from pRSET
T1 sequence (looked up): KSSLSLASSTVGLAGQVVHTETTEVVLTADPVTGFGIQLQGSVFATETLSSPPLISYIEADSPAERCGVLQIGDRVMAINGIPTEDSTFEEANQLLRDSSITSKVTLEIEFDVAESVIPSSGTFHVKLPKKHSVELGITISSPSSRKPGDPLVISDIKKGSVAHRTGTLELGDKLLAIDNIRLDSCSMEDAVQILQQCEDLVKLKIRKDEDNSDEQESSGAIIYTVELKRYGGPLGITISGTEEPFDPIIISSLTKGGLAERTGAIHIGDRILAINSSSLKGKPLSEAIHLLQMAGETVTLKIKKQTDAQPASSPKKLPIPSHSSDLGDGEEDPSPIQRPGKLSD

T2: His-GRIP-PDZ6 (UniProt P97879 672-754)
T2 construct: domain: PDZ 6; also called GRIP fragment containing only the PDZ 6 domain; PDZ domain 6 of GRIP; not shown: His tag
T2 sequence (looked up): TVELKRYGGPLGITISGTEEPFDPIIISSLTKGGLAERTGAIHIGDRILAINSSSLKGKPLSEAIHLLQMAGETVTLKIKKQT

T3: EphA8 (Mus musculus, UniProt O09127)
T3 sequence (O09127 27-1004): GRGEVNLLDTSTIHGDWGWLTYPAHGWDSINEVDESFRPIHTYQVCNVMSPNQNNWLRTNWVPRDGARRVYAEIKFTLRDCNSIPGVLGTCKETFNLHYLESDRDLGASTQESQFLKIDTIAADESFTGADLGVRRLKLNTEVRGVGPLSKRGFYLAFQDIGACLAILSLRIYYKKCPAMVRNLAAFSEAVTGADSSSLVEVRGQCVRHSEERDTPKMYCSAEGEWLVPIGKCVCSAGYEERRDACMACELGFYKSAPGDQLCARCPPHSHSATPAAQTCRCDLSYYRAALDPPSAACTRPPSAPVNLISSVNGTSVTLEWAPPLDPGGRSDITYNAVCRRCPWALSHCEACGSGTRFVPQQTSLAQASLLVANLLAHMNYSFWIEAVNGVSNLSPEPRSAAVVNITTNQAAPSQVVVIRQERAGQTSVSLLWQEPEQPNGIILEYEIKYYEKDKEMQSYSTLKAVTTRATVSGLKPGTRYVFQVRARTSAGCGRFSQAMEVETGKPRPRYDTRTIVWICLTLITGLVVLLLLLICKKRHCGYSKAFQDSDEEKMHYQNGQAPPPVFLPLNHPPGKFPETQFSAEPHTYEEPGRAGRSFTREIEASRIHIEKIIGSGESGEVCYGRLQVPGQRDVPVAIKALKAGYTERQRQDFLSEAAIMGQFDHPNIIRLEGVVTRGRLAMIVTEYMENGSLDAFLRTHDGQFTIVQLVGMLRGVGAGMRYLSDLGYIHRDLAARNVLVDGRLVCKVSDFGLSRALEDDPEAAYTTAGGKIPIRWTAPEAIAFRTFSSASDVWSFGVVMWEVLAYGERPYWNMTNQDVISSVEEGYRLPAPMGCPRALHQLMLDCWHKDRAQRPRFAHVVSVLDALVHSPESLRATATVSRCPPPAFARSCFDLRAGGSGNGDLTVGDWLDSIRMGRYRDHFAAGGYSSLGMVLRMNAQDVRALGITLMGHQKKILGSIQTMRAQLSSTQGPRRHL


How the values were obtained:
[1] = target: T1, His-GRIP(PDZ4-6); assay: displacement of ^35S-EphB2 (50 nM) from His-GRIP-PDZ4-6, Hill fit
[2] = target: T2, His-GRIP-PDZ6; assay: displacement of ^35S-EphB2 from His-GRIP-PDZ6
[3] = target: T3, EphA8; conditions: read-out: Kd for binding to EphA8; cited from earlier work
[4] = target: EphA4 (Homo sapiens, UniProt P54764); conditions: read-out: Kd for binding to EphA4; cited from earlier work
EphA4, sequence (P54764 20-986, species assumed): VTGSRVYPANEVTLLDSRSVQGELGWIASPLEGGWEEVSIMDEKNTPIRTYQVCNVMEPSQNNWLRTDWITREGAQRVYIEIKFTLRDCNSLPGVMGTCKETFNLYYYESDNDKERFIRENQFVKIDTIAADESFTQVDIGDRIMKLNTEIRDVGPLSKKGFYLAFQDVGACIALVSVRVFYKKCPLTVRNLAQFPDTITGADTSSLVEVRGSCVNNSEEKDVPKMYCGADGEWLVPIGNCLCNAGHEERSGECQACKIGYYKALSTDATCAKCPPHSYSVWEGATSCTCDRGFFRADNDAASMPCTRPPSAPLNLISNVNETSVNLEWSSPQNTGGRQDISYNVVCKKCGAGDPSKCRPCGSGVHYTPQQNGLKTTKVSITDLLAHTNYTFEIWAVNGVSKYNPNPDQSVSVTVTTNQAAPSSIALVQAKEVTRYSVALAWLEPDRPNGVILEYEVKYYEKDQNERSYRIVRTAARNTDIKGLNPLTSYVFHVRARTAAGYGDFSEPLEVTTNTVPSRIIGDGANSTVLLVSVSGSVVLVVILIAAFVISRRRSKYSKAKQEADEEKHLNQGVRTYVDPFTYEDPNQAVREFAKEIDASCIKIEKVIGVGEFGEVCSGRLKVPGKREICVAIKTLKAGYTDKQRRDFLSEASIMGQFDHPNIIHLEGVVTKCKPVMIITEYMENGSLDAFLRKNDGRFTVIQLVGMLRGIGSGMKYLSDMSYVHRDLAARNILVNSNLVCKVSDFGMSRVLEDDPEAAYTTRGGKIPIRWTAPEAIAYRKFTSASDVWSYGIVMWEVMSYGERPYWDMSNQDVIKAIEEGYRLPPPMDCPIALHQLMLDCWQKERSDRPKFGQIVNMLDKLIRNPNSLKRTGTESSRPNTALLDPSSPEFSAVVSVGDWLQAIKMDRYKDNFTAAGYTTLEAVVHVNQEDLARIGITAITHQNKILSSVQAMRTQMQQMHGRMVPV

[5] = target: EphA3; conditions: read-out: Kd for binding to EphA3; cited from earlier work
[6] = target: EphB1; conditions: read-out: Kd for binding to EphB1; cited from earlier work

Ki [1] [nM] | Ki [2] [nM] | Molecule | Kd [3] [nM] | Kd [4] [nM] | Kd [5] [nM] | Kd [6] [nM]
106 | 155 | NVYGIESVKI (also called GluR2ct; R2ct) [GluR2 carboxy terminal peptide] |  |  |  | 
 |  | ephrin-A2: a 213 amino acid protein; ephrin ligand (protein, UniProt O43921 1-213, looked up, full-length, a 213 amino acid protein; ephrin ligand) MAPAQRPLLPLLLLLLPLPPPPFARAEDAARANSDRYAVYWNRSNPRFHAGAGDDGGGYTVEVSINDYLDIYCPHYGAPLPPAERMEHYVLYMVNGEGHASCDHRQRGFKRWECNRPAAPGGPLKFSEKFQLFTPFSLGFEFRPGHEYYYISATPPNAVDRPCLRLKVYVRPTNETLYEAPEPIFTSNNSCSSPGGCRLFLSTIPVLWTLLGS | 1.3 | 10 | 1 | 
 |  | ephrin-B1: a 45 kDa, 346 amino acid glycosylated polypeptide; ephrin ligand (protein, UniProt P98172 1-346, looked up, full-length, a 45 kDa, 346 amino acid glycosylated polypeptide; ephrin ligand) MARPGQRWLGKWLVAMVVWALCRLATPLAKNLEPVSWSSLNPKFLSGKGLVIYPKIGDKLDIICPRAEAGRPYEYYKLYLVRPEQAAACSTVLDPNVLVTCNRPEQEIRFTIKFQEFSPNYMGLEFKKHHDYYITSTSNGSLEGLENREGGVCRTRTMKIIMKVGQDPNAVTPEQLTTSRPSKEADNTVKMATQAPGSRGSLGDSDGKHETVNQEEKSGPGASGGSSGDPDGFFNSKVALFAAVGAGCVIFLLIIIFLTVLLLKLRKRHRKHTQQRAAALSLSTLASPKGGSGTAGTEPSDIIIPLRTTENNYCPHYEKVSGDYGHPVYIVQEMPPQSPANIYYKV |  |  | 350 | 0.925
